test: yeast display, Sf9 membrane polyspecificity reagent, FACS + sequencing; frameworks hold sequencing errors
In short: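 A nanobody's polyreactivity label depends on the gate it was sorted from. Yeast display cells were stained with 10% biotinylated, detergent-solubilized Sf9 membrane reagent for 1 hour at 4 °C, enriched on streptavidin microbeads and sorted by FACS. The low and high (top ~1%) gates were set on anti-HA fluorescence for expression and streptavidin fluorescence for reagent binding.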

Sequence	polyreactivity (PSR sort gate)
QVQLVQSGGGLVQAGGSLRLSCAASGRIFPRYGMGWYRQAPGKERELCADITSSGSTYADSVKGRFTISRDNAKNTDYLQMHSLKPEDTAVYYCNALDRRLSYSWRYRQLYDYWGQGTQGTVSS	high polyreactivity
QVQLVESGGGLVQAGGSLRLSCAASGITFLTYTMGWYRQAPGKERELVAAISRSGGRTYYADSVKGRFTISRDNAKNTVYFQMNSLKPEDTAVYYCAAVSANQDFDYWGQGTQVTVSS	high polyreactivity
QVQLVESGGGLVQAGGSLRLSCAASGRTRYPYTMGWYRQAPGKERELVAAITSSGGRTTYADSVKGRFTISRDNAKNTVFLQMYSLKPEDRAVYYCAKKFRPGYRSQYLRYSWGQGSQVTVSS	low polyreactivity
QVQLVESGGGLVQAGGSLRLICAASGSIFRGYTMGWYRQAPGKERELVATISWSGGSTYYADSVKGRFTISRDNAKNTVYLQMNSLKPEDTAVYYCAAVWYLGIPYDYWGQGTQVTVSS	high polyreactivity
QVQLVESGGGLVQAGGSLRLSCAASGRNLYYNAMGWYRHAPGKERELVAAITFRGGSTSYADSVKGRFTISRDNAKNTVYLQMNSLKPEDTAVYYCAAGYTWRQSWYPFDYWGQGTQVTVSS	high polyreactivity
QVQLVESGGGLVQAGGSLRLSCAASGGTFTYSPMGWDREATGTERELVAAITDGGSTYYAVSVKGRFTISRDNAKTTFYLQMNSLKPEDTAVYYCAVRVRHNSKNTFFPYSYGYWGQGTQVTVSS	low polyreactivity
QVQLVESGGGLVQAGGSLRLSCAASGLIFYRYAMGWYRQAPGKERELVAVISWIGCNTYYADSVKGRFTISRDNAKNTVYLQMNSLKPEDTAVYYCAVATGPVSYRRYYWGQGTQVTVSS	high polyreactivity
QVQLEESGGGLVQAGGSLRLSCAATGGTFRDNVMGWYRQAPGKERELVAAISRNGGSTYYADTVKGRFTISRDNAKNTVYLQMTSLKPEDTAVYYCAARHLSAGGYYWGQGTQVTVSS	high polyreactivity
QVQLQESGGGLVQAGGSLRLSCAASGSISHYIFMGWYRQAPGKEREFVAGIGYGGTTNYADSVKGRFTISRDNAKNTVYLQMNSLKPEDTAVYYCAAVSIYWGQGTQVTVSS	low polyreactivity
QVQLVESGGGLVQAGGSLRLSCAASGGIFKRYAMGWYRQEPGKERELVAAISGRGGGTYYADSVKGRFTISRDNAKNTDYLQMNSLKPEDTAVYYCNARLSWSAFGYWGQGTQVTVSS	high polyreactivity
QVQLVESGGGLVQAGGSLRISCAASGRIFTTYAMGWYRQAPGKEREFVADITLSGSSTYYADSVKGRFTISRDNAKNTVYLQMNSLKPEDTAVYYCAARTGRYYRRYDYWGQGTQETVSS	high polyreactivity
QVQLVESGGGLVQAGGSLRLSCAASGRTFLIYAMGWYRQAPGKERELVAAINFSGGNTYYADSVKGRFTISRDNAKNTVYLQMNSLKPEDTAVYYCAARYRIGNNGYEYWGQGTQVTVSS	low polyreactivity
QVQLVESGGGLVQAGGSLRLSCAASGSILTGNAMGWYRPAPGKERELVAAISAGGTRTYYADSVKGRFTISRDNAKNTVYLQMNSLKPEDTAVYYCAADSSKRIGYDYWGQGTQVTVSS	high polyreactivity
QVQLVESGGGLVQAGGSLRLSCAASGRTITFYTMGWYRQAPVKERELVARITGGGSTFYADSVKGRFTISRDNAKNTVYLLMNSLKPEDTAVYYCAREYASAFWYPMYYWGQGTQVNVSS	low polyreactivity
QVQLVESGGGLVQAGGSLRLSCAASGSTFGLYAMGWYIQAPGKERELVAAISSRGSRTYYADSVKGRFTISRDNAKNTVYLQLNSLIPEDTAVYYCNALYASSVRHKVTYDYWGQGTQVTVSS	high polyreactivity
QVQLVESGGGLVQAGGSLRLSCAASGRTFRYYAMGWYRQAPGKESEFVARISSSGSSTYSADSVKGRFTISRDNAKNTVYLQMNSLKPEDTAVYYCAKTVLPYGGSNGLKWYYYWGQGTQVTVSS	high polyreactivity
QVPLVESGGGLVQAGGSLRLSCAASGRTFPRYAMGWYRQAPGKERELVATISSGGSTNYADSVKGRFTISLDNAKNTVYLQMNSLKPEDTAVYYCAARYGRTYTRVGYWGQGTQVTVSS	high polyreactivity
QVQLVESGGGLVQAGGSLRLICAASGFTLADNGMGWYRQAPGKERELVATISGGGSTNYADSVKGRFTISRDNAKNTVYLQMISLKPEDTAVYYCAKEGRYSWYTLSEYDYWGQGTQVTVSS	low polyreactivity
QVQLVESGGGLVQAGGSLRLSCAASGSTMLDYAMGWYRQAPGKERELVAAISWSGGSTRYADSVKGRFTISRDNAKNTVFLQMNSLKPEDTAVYYCAATGFSYRYFQTRDYWGQGTQVTVSS	high polyreactivity
QVQLQESCGGLVQAGGSQRLSCAASAYIFYFQYMGWYRQAPGKEREFVAAISDGANTNYADSVKGRFTISRDNAKNTEYLQMNSLKPEDTAVYYCAVYADENFYYIYWGQGTEVTVSS	low polyreactivity
QVQLVESGGGLVQAGGSLRLSCAASGNIRYYAMGWYRQAPGKERELVAAITRRSGNTYYADSVKGRFTISRDNAKNTVYLQMNSLKPEDTAVYYCAVVLYTYLTPYYEMDYWGQGTQVTVSS	high polyreactivity
QVQLVESGGGLVQAGGSLRLSCADSGFIFRYNTMGWYRQAPGKERELVAAITSGDSTYYADSVKGRFTITRDNAKNTVYLQMNSLKPEDTEVYYCAARPYSGRNKYDYWGQGTQVTVSS	high polyreactivity

Sequence	polyreactivity (PSR sort gate)
QVQLVESGGGLVQAGGSLRLSCAASGFTLYYNAMGWYRQAPGKERELVAAINIGDSTNYADSVKGRFTISRDNAKNTVYLQMNSLKPEDTAVYYCAAVLLPYGVFYTVAINVDYWGQGTQVTVSS	low polyreactivity
QVQLVESVGGLVQAGGSLRLICAASGSIFVPNTMGWYRQAPGKERELVAAINISGGNTYYADSVKGRFTISRDNAKNTVYLQMNSLKPEDTAVYYCAAVWFKVWSFAGDWGQGTQVTVSS	low polyreactivity
QVQLVESGGGLVQAGGSLRLSWAASGRTFGVYAMGWYRQAPGTERELVATITRSGGRTYYADSVKGRFTLSRDTAKNTVYLQMNSLKPEATAVYYCNAGHGSLRYNYWGQGTQVTVSS	high polyreactivity
QVQLVESGGGLVQAGGSLRLSCAASGSIFVPYAMGWTRQAPGKERELVAAIRRSGGRTYYADSVKGRFTISRDNAKNNVYLQMKSLKPEYTAVFYCAARQRYFWYTSNYNYWAQGTQVTVSS	high polyreactivity
QVQLVESGGGLVQAGGSLRLSCAASGSTFRHNVMGWYRQAPGKERELVAAISYSGGSTHYADSVKGRFTISRDNAKNTVYLQMNSLKPEDTAVYYCNRYSYDSHFLYPFRGHDYWGQGTQVTVSS	low polyreactivity
QVQLVESGGGLVQAGGSLRLICAASGSTFAGNTMGWYRQAPGKERELVATITSDGSTDYADSVKGRFTISRDNAKNTVYYQMNSLKAEDPAVYYCAKARGLSKMDSWGQGTQVTVSS	low polyreactivity
QVQLVESGGGLVQAGGSLRLSCAASGFILLQYVMGWYRQAPGKERELVAAITSGGSTYYADSVKGRFTISRDNAKYTVYLQMNSLKPEDTAVYYCSTDVADNTFYALYGYDYWGQGTQVTVSS	low polyreactivity
QVQLVESGGGLVQAGGSLRLRCAASGSTSWSNPMGWYRQAPGKERELVAAITTGASTYYADSVKGRFTISRDNAKNTVYLQMNSLKPEDTAVYYCAADPWVLWSYYYWGQGTQVTVSS	low polyreactivity
QVQLVESGGGLVQAGGSLRLSCAASGFIFIINAMGWYRQAPGKERELVAGIRWSGGSTYYADSVKGRFTISRDNAKNTVYLQMNSLKPEDTAVYYCNKDRGSLTLYTYDYWGQGTQVTVSS	low polyreactivity
QVQLVESGGGLVQAGGSLRLSCAASGSIFRVYAMGWYRQAPGKERELVAAITSRGGSTYYADSVKGRFTISRDNAKNTVYLQMNSLKQEDTAVYYCAAAYPYRTGRGYYWGQGTQVTVSS	high polyreactivity
QVQLVESGGGLVQAGGSLRLSCAASGSTFPPYVMGWYRQAPGKERELVAAISRGGGSTYYADSVKGRFTISRDNAKNTVYLQMNSLKPEDTAVYYCAAKNVYHDDYWGQGTQVTVSS	high polyreactivity
QVQLVESGGGLVQAGGSLRLSCAASGNTFIDYAMGWYRQAPGKETELVAAITRGGRTNYADSVKGRFTISRDNAKNTVYLQMNSLKPEDTAVYYCAAALRRRRADFDYWGQGTQVTVSS	high polyreactivity
QVQLVESGGGLVQAGGSLSLSCAASGSTYLDYTMGWYIQAPGKERELVAVISYRAGSTYYADSVKGRFTISRDNAKNTVYLLMHSLKPEDTAVYYCNADYYNYWRRRRYVWYESWGQGTQVTVSS	low polyreactivity
QVHLVESGGGLVQAGGSLRLSCAASGSIFTYYAMGWYRQAPGKERELVAAISSDGSTTYADSVKGRFTISRDNAKNTVYLQMNSLKPEDTAVYYCAASSYNGHGYWGQGTQVTVSS	low polyreactivity
QVQLVESGGGLVQAGGSLRLSCAASGSIFFSYAMGWYRQAPGKERELVAAITSSVDSTYYADSVKGRFTISRDNAKNTVYLQMNSLKPEDTAVYYCAARYRSGYYRYDYWGQGTQVTVSS	low polyreactivity
QVQLVESGGGLVQAGGSLRLSCAASGRTFWDYGMGWYRQAPGKDRELDATISGNGGDTYYADSVKGRFTISRDTAKNTVYLQMNSLKPEDTAVYYCAADYRFYRTDRHYDYWGQGTQVTVSS	low polyreactivity
QVQLVDSGGGLVQAGGSLRLSSAASGRTFDYYAMGWYRQAPGKERELVAAITKDGGSTYYADSVKGRFTISRDNAKNTVFLQMNSLKPEDTAVYYCAADGPPLYYDPIHYDYWGQGTQVTVSS	low polyreactivity
QVQLVESGGGIVQAGGSLRLSCAASGSIFKYYAMARYRQAPGKERELVASMSRVGSTNYADSVKGRFTISRDTAKNTVYLQMNSLKPEDTAVYYCNKRWLYYNLDYWGQGTQVTVSS	high polyreactivity
QVQLVETGGGLVQAGGSLRLSSAASGFTFGTYAMGWYRQAPGKERELVAAITGSGVRTYYADSVKGRFTISRDIAKYTVFLQMNSLKPEDTAVYYCAADYVVPLAFWTFRFDYWGQGTQVTVSS	low polyreactivity
QVQLVESGGGLVQAGGSLRLSCAASGYTVWGYAMGWYRQAPGKERELVADITISGGSTYYADSVKGRFTISRDNAKNTVYLQMNSLKPDDSAVYYCAASRAFSWWLSYDYWGQGTQVTVSS	high polyreactivity
QVQLVESGGGLVQAGGSLRLSCAASGSTSMSYVKGWYRQAPGKERELVASITSSGGSTYYADSVKGLFTISRDNAKNTVYLQMNSLKPEDTAVYYCNARSYIYPFSPTSYYRYYWGQGTQVTVSS	high polyreactivity

From the nanobody polyreactivity screen of Harvey et al. (2022)
